US20220242962A1 (APTEVO RESEARCH AND DEVELOPMENT, published 2022)
Numbering of substitutions follows the chain as printed. Names and notes keep the numbering of the source. Each block holds one binder with its values, some of them ahead of it.

Legend:
[1] = target: T1, C1Q (UniProt P02745 23-245; P02746 28-253; P02747 29-245); assay: SPR, Fc captured, C1Q as analyte
T1 construct: also called complement C1Q
Description: (§1) Fc mutations to be potentially integrated into an ADAPTIR™ bispecific construct were analyzed for binding to the common Fc receptors (human and cyno) and C1Q, which is a component of the complement activation system. SPR experiments were conducted at 25° C. in HBS-EP+ buffer on a Biacore T200 system.
(§2) For these experiments, all four flow cells of a CM5 sensor chip were immobilized with goat F(ab′)2 anti-human Fc (Jackson ImmunoResearch) to a response level of ˜4000 RU. Fc variants and wild type Fc were diluted to 100 nM in HBS-EP+ and captured on the surface of the chip for 120 seconds at a flow rate of 10 μL/min. Fcγ receptors (human and cyno, all purchased from R&D Systems) and complement (C1Q, purchased from Quidel Corporation and Complement Technology, Inc) were diluted in HBS-EP+ and then flowed as analytes at 30 μL/min for 120 seconds followed by a 120 seconds dissociation. Regeneration was achieved by flowing 10 mM glycine pH 1.7 at 30 μL/min for 30 seconds followed by a 60 seconds stabilization. Flow cell 1 was always left as a blank (no captured protein) for purposes of background signal subtraction. Blank-subtracted sensorgrams for each captured Fc variant were inspected for the presence of binding to any of the Fcγ receptor proteins or complement. There are polymorphisms in the Human Fc receptors IIA and RIIIA, so both sequences were tested for binding.

[2] = target: T2, Cyno RIII (cynomolgus monkey, UniProt Q8SPW2 17-208); assay: SPR, Fc captured, receptor as analyte
T2 construct: extracellular domain
Description: as §2

[3] = target: T3, Fc gamma receptor RIIA R167 (human, UniProt P12318 36-218); assay: SPR, Fc captured, receptor as analyte, relative to wild type Fc
T3 construct: soluble SPR analyte
T3 sequence (looked up): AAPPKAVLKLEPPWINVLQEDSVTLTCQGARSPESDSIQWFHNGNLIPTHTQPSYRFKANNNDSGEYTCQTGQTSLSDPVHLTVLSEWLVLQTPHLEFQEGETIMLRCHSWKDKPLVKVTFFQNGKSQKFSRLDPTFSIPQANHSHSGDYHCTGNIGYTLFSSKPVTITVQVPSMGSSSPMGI
Description: as §1, §2

[4] = target: T4, Fc gamma receptor RI (human, UniProt P12314 16-288); assay: SPR, Fc captured, receptor as analyte
T4 construct: also called FcγRI
Description: as §1, §2

[5] = target: T5, Fc gamma receptor RIIB/C (human, UniProt P31994 46-217); assay: SPR, Fc captured, receptor as analyte
T5 construct: soluble SPR analyte
T5 sequence (looked up): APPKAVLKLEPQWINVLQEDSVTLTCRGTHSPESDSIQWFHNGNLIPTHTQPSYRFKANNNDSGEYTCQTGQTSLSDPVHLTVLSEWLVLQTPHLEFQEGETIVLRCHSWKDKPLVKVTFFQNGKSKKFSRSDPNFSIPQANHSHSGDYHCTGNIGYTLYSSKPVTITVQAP
Description: as §1, §2

[6] = target: T6, Fc gamma receptor RIIIA V176 (human, UniProt P08637 17-208); assay: SPR, Fc captured, receptor as analyte
T6 construct: soluble SPR analyte
Description: as §1, §2

[7] = target: T7, Fc gamma receptor RIIA H167 (human, UniProt P12318 36-218); assay: SPR, Fc captured, receptor as analyte
T7 construct: soluble SPR analyte
T7 sequence (looked up): T3 sequence (looked up) with R132H
Description: as §1, §2

[8] = target: T8, Fc gamma receptor RIIIB (human, UniProt O75015 17-200); assay: SPR, Fc captured, receptor as analyte
T8 construct: soluble SPR analyte
Description: as §1, §2

[9] = target: T9, Fc gamma receptor RIIA H131 on CHO-K1SV cells (human, UniProt P12318 34-317); assay: flow cytometry, CHO-K1SV transfectants
T9 construct: whole, on cells
T9 sequence (looked up): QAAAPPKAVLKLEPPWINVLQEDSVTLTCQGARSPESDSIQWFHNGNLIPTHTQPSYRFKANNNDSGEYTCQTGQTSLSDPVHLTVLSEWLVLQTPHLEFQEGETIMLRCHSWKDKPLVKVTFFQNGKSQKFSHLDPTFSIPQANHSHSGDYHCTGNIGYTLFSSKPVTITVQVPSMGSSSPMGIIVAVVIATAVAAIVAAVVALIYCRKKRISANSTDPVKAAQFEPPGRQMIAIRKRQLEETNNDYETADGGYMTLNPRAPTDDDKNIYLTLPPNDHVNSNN
Description: (§3) CHO-K1SV cells stably transfected with a series of FcγR receptors were incubated with each of the […] listed in Table 23. A typical experiment labeled approximately 100,000 cells per well, in 96-well plates, with a range of binding molecule concentrations of 1 to 1000 nM, in 100 μl of PBS buffer with 0.2% BSA and 2 mM EDTA, for 30 minutes on ice, followed by washes and incubation with PE-labeled minimum cross species reactive secondary antibody, goat anti-human IgG Fcγ, F(ab′)2 ([…]) for 30 minutes to 1 hour on ice. Signal from bound molecules was detected using a LSR-II™ flow cytometer (BD Biosciences) and analyzed by FlowJo flow cytometry analysis software. Mean fluorescence intensity (MFI) of bound molecules on cells was determined after exclusion of doublets.

[10] = target: T10, Fc gamma receptor RIIB/C on CHO-K1SV cells (human, UniProt P31994 43-310); assay: flow cytometry, CHO-K1SV transfectants
T10 construct: whole, on cells
T10 sequence (looked up): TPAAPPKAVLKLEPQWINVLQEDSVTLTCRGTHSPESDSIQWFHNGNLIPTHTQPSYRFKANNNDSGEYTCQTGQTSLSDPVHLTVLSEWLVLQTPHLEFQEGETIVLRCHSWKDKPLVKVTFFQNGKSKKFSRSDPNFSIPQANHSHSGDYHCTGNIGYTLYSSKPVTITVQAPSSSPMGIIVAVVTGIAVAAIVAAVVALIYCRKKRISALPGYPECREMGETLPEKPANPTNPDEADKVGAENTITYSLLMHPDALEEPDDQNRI
Description: as §3

[11] = target: T11, Fc gamma receptor RIIIA V158 on CHO-K1SV cells (human, UniProt P08637 17-254); assay: flow cytometry, CHO-K1SV transfectants
T11 construct: whole, on cells
Description: as §3

[12] = target: T12, Fc gamma receptor RIIIA F158 on CHO-K1SV cells (human, UniProt P08637 17-254); assay: flow cytometry, CHO-K1SV transfectants
T12 construct: whole, on cells
Description: as §3

[13] = target: T13, Fc gamma receptor RIIIB on CHO-K1SV cells (human, UniProt O75015 17-200); assay: flow cytometry, CHO-K1SV transfectants
T13 construct: whole, on cells
Description: as §3

[14] = target: T14, Fc gamma receptor RI on CHO-K1SV cells (human, UniProt P12314 16-374); assay: flow cytometry, CHO-K1SV transfectants
T14 construct: whole, on cells; also called FcγR1 cells
Description: as §3

[15] = target: T15, Recombinant FcRn/b2M protein (human, UniProt P55899 24-297; P61769 21-119, limits assumed); assay: SPR pH 6.0, FcRn/b2M immobilized, two-state reaction model
T15 construct: also called hFcRn/b2M; neonatal Fc receptor
Description: Recombinant FcRn/b2M protein was generated via transient transfection of HEK-293 cells with a bi-cistronic vector containing the genes for both FcRn and […]. The complex was purified using IMAC chromatography and subsequently buffer exchanged into IMAC elution buffer after verifying purity of the IMAC eluate by analytical SEC. hFcRn/b2M at 10 μg/ml in 10 mM sodium acetate (pH 4.5) was immobilized on a CM5 chip by direct amine coupling chemistry to a level of ˜600 RU. A reference flow cell was left blank.
Different concentrations of the Fc variant protein (5-80 nM by 2-fold dilutions in pH 6.0 running buffer) including running buffer as blank were injected in randomized order at 30 μL/min for 180 seconds followed by a 120 second dissociation period.
Sensorgrams obtained from kinetic SPR measurements were analyzed by the double subtraction method. The signal from the reference flow cell was subtracted from the analyte binding response obtained from flow cell with immobilized ligands. Buffer reference was subtracted from analyte binding responses, and the final double-referenced data were analyzed with Biacore T200 Evaluation software (2.0, GE), globally fitting data to derive kinetic parameters. All sensorgrams were fitted using two-state reaction model, as described in Weirong Wang et al, DrugMetab Dispos.: 39(9): 1469-77 (2011).

[16] = target: T6, Fc gamma receptor RIIIA V176; assay: SPR, Fc captured, receptor as analyte, relative to wild type Fc
Description: as §1, §2

[17] = target: T16, Full-length Cyno 4-1BB (cynomolgus monkey, UniProt Q07011 24-255 (human entry)); assay: binding to cells expressing full length cyno 41BB
T16 construct: on Jurkat or CHO cells; also called FOB006; cynomolgus 4-1BB
T16 chain: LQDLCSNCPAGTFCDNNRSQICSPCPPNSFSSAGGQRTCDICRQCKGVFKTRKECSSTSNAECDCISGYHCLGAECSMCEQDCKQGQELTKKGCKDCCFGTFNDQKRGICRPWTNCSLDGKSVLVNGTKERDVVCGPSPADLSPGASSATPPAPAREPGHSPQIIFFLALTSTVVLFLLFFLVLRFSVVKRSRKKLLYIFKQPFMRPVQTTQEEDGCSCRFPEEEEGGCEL

[18] = target: T17, Full-length Human 4-1BB (human, UniProt Q07011 24-255); assay: binding to cells expressing full length human 41BB
T17 construct: also called FOB005; CD137

T13 sequence (O75015 17-200): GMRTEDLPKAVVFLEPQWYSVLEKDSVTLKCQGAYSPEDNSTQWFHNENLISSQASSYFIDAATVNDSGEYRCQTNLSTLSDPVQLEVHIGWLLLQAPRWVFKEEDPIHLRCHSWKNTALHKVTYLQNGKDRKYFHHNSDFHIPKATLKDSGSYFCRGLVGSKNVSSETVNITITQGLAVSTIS
T8 sequence (O75015 17-200): as above
T6 sequence (P08637 17-208 F176V): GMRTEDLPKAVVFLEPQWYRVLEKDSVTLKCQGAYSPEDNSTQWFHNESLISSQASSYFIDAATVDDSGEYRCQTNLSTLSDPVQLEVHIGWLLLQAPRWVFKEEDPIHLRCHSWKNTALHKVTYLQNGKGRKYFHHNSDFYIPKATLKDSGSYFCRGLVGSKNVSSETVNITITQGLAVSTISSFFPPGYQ
T14 sequence (P12314 16-374): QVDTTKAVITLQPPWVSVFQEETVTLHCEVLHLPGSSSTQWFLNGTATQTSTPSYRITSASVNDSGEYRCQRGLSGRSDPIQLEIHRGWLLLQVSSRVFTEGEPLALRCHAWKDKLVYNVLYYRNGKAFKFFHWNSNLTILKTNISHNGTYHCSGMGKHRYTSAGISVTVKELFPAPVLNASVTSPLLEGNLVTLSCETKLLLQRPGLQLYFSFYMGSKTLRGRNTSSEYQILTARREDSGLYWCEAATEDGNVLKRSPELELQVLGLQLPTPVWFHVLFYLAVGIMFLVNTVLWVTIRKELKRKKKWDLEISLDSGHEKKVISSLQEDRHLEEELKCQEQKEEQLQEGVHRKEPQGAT
T4 sequence (P12314 16-288 limits assumed): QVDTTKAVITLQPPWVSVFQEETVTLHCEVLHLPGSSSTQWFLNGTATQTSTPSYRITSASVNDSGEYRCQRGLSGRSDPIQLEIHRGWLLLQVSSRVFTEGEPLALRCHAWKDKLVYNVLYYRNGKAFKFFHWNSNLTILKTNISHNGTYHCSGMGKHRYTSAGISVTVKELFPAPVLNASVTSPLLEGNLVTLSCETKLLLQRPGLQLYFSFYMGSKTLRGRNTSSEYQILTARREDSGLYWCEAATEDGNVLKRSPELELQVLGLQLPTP
T2 sequence (Q8SPW2 17-208): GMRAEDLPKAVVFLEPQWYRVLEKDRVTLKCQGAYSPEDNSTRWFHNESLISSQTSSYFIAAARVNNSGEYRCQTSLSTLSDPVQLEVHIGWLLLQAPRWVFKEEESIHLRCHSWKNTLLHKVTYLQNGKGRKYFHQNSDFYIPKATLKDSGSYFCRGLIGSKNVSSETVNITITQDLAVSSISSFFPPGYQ
T1 sequence (P02745 23-245 limits assumed, chain 1 of 3): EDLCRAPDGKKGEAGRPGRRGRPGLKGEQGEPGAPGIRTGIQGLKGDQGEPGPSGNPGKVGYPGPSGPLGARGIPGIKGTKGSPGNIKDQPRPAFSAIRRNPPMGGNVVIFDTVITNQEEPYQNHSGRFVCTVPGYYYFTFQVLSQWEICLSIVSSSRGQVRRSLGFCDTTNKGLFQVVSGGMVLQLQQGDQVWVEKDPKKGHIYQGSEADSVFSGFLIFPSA
T1 sequence (P02746 28-253 limits assumed, chain 2 of 3): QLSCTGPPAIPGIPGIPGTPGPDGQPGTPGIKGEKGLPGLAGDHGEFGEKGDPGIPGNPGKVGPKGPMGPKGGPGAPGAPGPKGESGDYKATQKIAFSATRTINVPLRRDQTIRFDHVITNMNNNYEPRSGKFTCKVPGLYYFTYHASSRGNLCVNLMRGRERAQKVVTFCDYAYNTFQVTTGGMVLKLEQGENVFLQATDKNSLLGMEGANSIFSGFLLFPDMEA
T1 sequence (P02747 29-245 limits assumed, chain 3 of 3): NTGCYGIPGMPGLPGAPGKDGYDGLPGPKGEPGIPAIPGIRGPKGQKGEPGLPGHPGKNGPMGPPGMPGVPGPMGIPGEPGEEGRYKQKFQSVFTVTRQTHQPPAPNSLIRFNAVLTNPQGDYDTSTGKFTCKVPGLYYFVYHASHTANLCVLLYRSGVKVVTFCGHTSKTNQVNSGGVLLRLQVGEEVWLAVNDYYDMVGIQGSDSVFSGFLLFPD
T12 sequence (P08637 17-254): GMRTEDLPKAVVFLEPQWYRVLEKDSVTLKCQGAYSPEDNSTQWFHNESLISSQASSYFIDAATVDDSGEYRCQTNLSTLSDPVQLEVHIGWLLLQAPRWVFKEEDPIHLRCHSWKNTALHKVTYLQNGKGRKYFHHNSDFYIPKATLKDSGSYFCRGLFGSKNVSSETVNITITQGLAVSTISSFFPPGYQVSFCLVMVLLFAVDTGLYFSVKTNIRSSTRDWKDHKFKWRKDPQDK
T11 sequence (P08637 17-254 F176V): as the sequence (P08637 17-254) above, with F160V counted along it

binding result [1]: no binding
binding result [2]: no binding
binding result [3]: binds
binding result [4]: no binding
binding result [5]: no binding
binding result [6]: no binding
binding result [7]: no binding
binding result [8]: no binding
binding result [9]: no binding (tested: 1 to 1000 nM)
binding result [10]: no binding (tested: 1 to 1000 nM)
binding result [11]: no binding (tested: 1 to 1000 nM)
binding result [12]: no binding (tested: 1 to 1000 nM)
binding result [13]: no binding (tested: 1 to 1000 nM)
binding result [14]: no binding (tested: 1 to 1000 nM)
Kd [15]: 20 nM
B1: TSC 1004 (other)
chain: EPKSSDKTHTCPPCPAPPVAGAPSVFLFPPKPKDTLMISRTPEVTCVVVDVSHEDPEVKFNWYVDGVEVHNAKTKPREEQYNSTYRVVSVLTVLHQDWLNGKEYKCAVSNKALPAPIEKTISKAKGQPREPQVYTLPPSRDELTKNQVSLTCLVKGFYPSDIAVEWESNGQPENNYKTTPPVLDSDGSFFLYSKLTVDKSRWQQGNVFSCSVMHEALHNHYTQKSLSLSPG
notes: IgG1 Fc with E233P, L234V, L235A, G237A, K322A (EU); also called PVAG TSC01004

binding result [1]: no binding
binding result [2]: no binding
binding result [3]: binds
binding result [16]: binds
binding result [4]: no binding
binding result [5]: no binding
binding result [7]: no binding
binding result [8]: no binding
binding result [9]: no binding (tested: 1 to 1000 nM)
binding result [10]: no binding (tested: 1 to 1000 nM)
binding result [12]: no binding (tested: 1 to 1000 nM)
binding result [13]: no binding (tested: 1 to 1000 nM)
binding result [14]: no binding (tested: 1 to 1000 nM)
Kd [15]: 19 nM
B2: TSC 1006 (other)
chain: B1 chain with V19A
notes: IgG1 Fc with E233P, L234A, L235A, G237A, K322A (EU); also called PAAG TSC01006

binding result [1]: no binding
binding result [2]: no binding
binding result [3]: binds
binding result [4]: no binding
binding result [5]: no binding
binding result [6]: no binding
binding result [7]: no binding
binding result [8]: no binding
binding result [9]: no binding (tested: 1 to 1000 nM)
binding result [10]: no binding (tested: 1 to 1000 nM)
binding result [11]: no binding (tested: 1 to 1000 nM)
binding result [12]: no binding (tested: 1 to 1000 nM)
binding result [13]: no binding (tested: 1 to 1000 nM)
binding result [14]: no binding (tested: 1 to 1000 nM)
Kd [15]: 19 nM
B3: TSC 1007 (other)
chain: EPKSSDKTHTCPPCPAPPAAAPSVFLFPPKPKDTLMISRTPEVTCVVVDVSHEDPEVKFNWYVDGVEVHNAKTKPREEQYNSTYRVVSVLTVLHQDWLNGKEYKCAVSNKALPAPIEKTISKAKGQPREPQVYTLPPSRDELTKNQVSLTCLVKGFYPSDIAVEWESNGQPENNYKTTPPVLDSDGSFFLYSKLTVDKSRWQQGNVFSCSVMHEALHNHYTQKSLSLSPG
notes: IgG1 Fc with E233P, L234A, L235A, deletion of G236, G237A, K322A (EU); also called PAAdel TSC01007

binding result [17]: binds
binding result [18]: binds
B4: Clone 6 anti-41BB murine monoclonal antibody (antibody, V domains shown)
VH: QVQLQQPGAELVKPGASVKLSCKASGYTFTSYWINWVKQRPGQGLEWIGNIYPGSSTTNYNEKFKSKATLTVDTSSSTAYMQLSSLTSDDSAVFYCASFSDGYYAYAMDYWVQGTSVTVSS
VL: DIQMTQTTSSLSASLGDRVTITCRASQDISNYLNWYQQKPDGTVKLLIYYTSRLHSGVPSRFSGGGSGTDYSLTISNLEQEDIATYFCQQGYTLPYTFGGGTKLEIK
notes: hybridoma-derived mouse antibody; also called mAb Clone 6; mouse clone 6
